Experiment: yeast display, Sf9 membrane polyspecificity reagent, FACS + sequencing; frameworks hold sequencing errors
How it was run: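 In a synthetic yeast display library (Saccharomyces cerevisiae BJ5465), nanobody expression was induced with galactose for 36–48 hours. FACS gates were set low and high (top ~1%) using anti-HA fluorescence for expression and streptavidin fluorescence for binding of the Sf9 membrane reagent. Each polyreactivity label is drawn from the gate of origin.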

Sequence | polyreactivity (PSR sort gate)
QVQHVESGGVLVQAGGSLRLSCAASGSTFARNALGWYRQAPGKETELVAAITTRGSSTYYADSVKGRFTISRDKAKNTVYLQLYSLKPEDTAVYYCAAVSRRSWYWGGYRQNGMGYWGQGTQVTVSS | high polyreactivity
QVQHVESGICLVQAGGSLRLSCAASGGTVTPYAMGWYRQAPGKERELVAAISRYGARTYYADSVKGRFTISRDNANNNVFLEMNSLKPEVSAVYYCAARWYARTYVRGGMVYWRQGTQVTVSS | high polyreactivity
QVQHVESGLGLDQAAGSLRLSSAASGFIFWYSSMGWYREARGKERELVAAITGGAITYYADSVKGRFTITRDNAKNTVYLPMNSLIPEDTAVYYGADELTLGRFRYDYWGQGTQVTVSA | high polyreactivity
QVQHVESGRGLVQAGGRLRLSCADSGMTFGYSAMGWYRPAPGKDRELVAAISGTAGDTYYADSVKGRFTISRDNAKNTVYLQMNSLKAEVTAVYYCAKVKRWFGVTIELDYWGQGTQGTVSS | low polyreactivity
QVQHVESGRGLVQAGGSLRLSCAASGGTFNRYAMGWYRQAPGKERELVAAITSSGGSTYYADSVKGRFTISRDNAMNTVYLHMNSLNPEDTAVYYCNAPGFRRLWGLGYDYWGQGTQVTVSS | high polyreactivity
QVQHVESGRGLVQAGGSLRLSCAASGRISYYYAMGWSRQAPGKEMELVAAITNVGGTYYADSVKGRFTISRDNAKNTVYLQMNSLKQEDTAVFYCAKDFPARHNYWYSSRFFDYWGQGTQGTVSS | low polyreactivity
QVQHVESGRGLVQAGGSLRLSCAAYGRIPYKAMGWYKQAPGKERELVAAISRSGTRTYYADSVKGRYTISRDNAKNTVYLQMISLKPQDTAVYYCAAPVSGYSSDYWGQGTQVTVSS | high polyreactivity
QVQHVESGVGLVQAGGRLRLSCAASGRTFSSNAMGWYRKAPGKERELVAAISSSGGRTYYADSVKGRFTISRDNAKNTVYLDMNSLKQEDTAVYYCAVVYFPIWASYPYWWEYDYWGHGTQVTVSS | high polyreactivity
QVQHVESGVGLVQAGGSLRLSCAASGFTFGWYAMGWYRQAPGKERELVASISWSGSTTYYADSVKGRFTISRDIAKNTVYLQMNSLKPEDTAVYYCNARRSYVRNDFDYWGQGTQVTVSS | high polyreactivity
QVQHVESGVGLVQAGGSLRLSCAASGITFLDTVLGWYRHAPAKEWELVADINSIGTSTSYADSVKGRFTISRDNAKNTVYLQMISLKPEDTADYYCAATSYARLAYYYGGQGTQVTVSS | low polyreactivity
QVQHVESGVGLVQAGGSLRLSCASSGLTFQYYSMGWYRQAPGKERELVAAISRRGGSTYYADSVKGRFTISRDNAKNTVYLQMNSLKPEDTAVYYCARYSYRGTNVRYDYWGQGTQVTVSS | high polyreactivity
QVQHVESRGGLDPAGGSLRLSCAASGRIFRGNAMGWSSQATGKERELVASITWRGTSTYYADSVKGRFTISRDIAMNTVYLQMNSLKPEDTAVYYCNAVTQTRGYYWGQGTQVTVSS | high polyreactivity
QVQHVESRGGLVQAGGSLRLSCAASGNTFWYNAMGWYRQAPGKERELVAAITTSDFGTYYADSVKGRFTISRDNAKNTVYLQMNSLKPEDTAVYYCAAEVYTQRPYYYPAYDYWGQGTQVTVSS | high polyreactivity
QVQHVESVGGLDQAGGSLRLSSAASGRTFYLYAMGWYRQATGKEREFVADINSSGGSTYYADSVKGRFTISRDNAKNTVYLQMNSLKPEDTAVYYCAAYPIPRGRDYWGQGTQVTVSS | low polyreactivity
QVQHVESVGGLDQAGRSLRLSCAASGSTFTPYAMGWYRQAPGKESELVAGITGNGGSTRYADSVKGRFTISRDNAKKTVYLQMNSLKPEDTAVYYCAARWTRQRYRTSYYSWGQGTQVTVSS | high polyreactivity
QVQHVESVGGLLQAGCSLRLSCAPSGRIFGENAIGWYRQAPGKEREFLAVISISDASTYYADSVKGRFTISRDNAKNTGYLQMNSLKPDDTAVYYCAADLTDFLYVASDYWGQGTQVTVSS | low polyreactivity
QVQHVESVGGLVQAGGSLPLSCDASGSIFGPNAMGWYRQAPGKESELVAAISGSGGSTYYADSVKGRFTISRDNAKNTVYLQMNSLKPEATAVYYCAADLDGTLSVYDYHTTGDDYWGQGTQVTVSS | low polyreactivity
QVQHVESVGGLVQAGGSLRLSCAASGFIFRRYVMGWNRQAPGKERELVAAISYGGGSTYYADSVKGRFTISRDNAKNTVYLQMNCLKPEDTAVYYCNAVSYNLAAYEYWGQGTQVTVSS | high polyreactivity
QVQHVESVGGLVQAGGSLRLSCAASGFISDWYAMGWYRQAPGKERELVATIDWIGGSTYADSVKGRFTISRDNAKNTVYLQMNSLKPEDTAVYYCAADSYFIAWYGAHYAYDYWGQGTQVTVSS | low polyreactivity
QVQHVESVGGLVQAGGSLRLSCAASGSIFDDYAMGWYRPAPGKERELVAAISSSGTSTYYADSVKGRFTISRDNAKNTVYLQMNSLKPEDTAVYYCAARSAILKSGYLMDYWGQGTQVTVSS | low polyreactivity
QVQHVETGGGLVQAGCSLRLSCAASGRTFLWNAMGWYRQERGNERELGARINLSGGRTYYADSVKGRFTISRDNAKNSVYLQMNSLKPEETAVYYCAAPVVRYRRDSWGQGTQVTVSS | low polyreactivity
QVQHVQSGGGLVQAGGSLRLSCAAAGFIYNNAMGWYRQAPGKETELVATISTSGTDTYYADSVKGRFTISRDNAKNTVYLQMNSLKPEDTAVYYCNADTEIYDSYSSYWTRYEYWGQGTQVTVSS | low polyreactivity

Sequence | polyreactivity (PSR sort gate)
QVQIEESGGGLVQAGGSLPLSCAASGTIFKYYTRGWYRLAPGKERELFAAISGSGGTTYYADSVKGRFTISRDNAKNTVYLQMNSLKPEDTAVYYCATAYYRAFRGDYWGQGTQVTVSS | high polyreactivity
QVQIEESGGGLVQAGGSLRLSCAASGSTFGYYAMGWYRQAPGKERELVAAISRGGSTYYADSVKGRFTISRDIAKYTVYLQMHSLKPEDTAVYYCNAVRYLEYDWGQGTQVTVSS | high polyreactivity
QVQILESGGGLVQAGVSLRLSCAPSGSTFSRNAMAWYRQAPGKERELVAAISSSGGRTYYAESVKVRFTISRDNAKNTVYLQMNSLTPEDTAVYYCAAAFSLGMYWGQGTLVTVSS | high polyreactivity
QVQIVDSGGGLVHAGGSLRLSCADSGSIFSGNAKAWYIQATGKERELVAAISRSGGSTYYADSVKGRFTISRDNAKNTVYLQMNSLKPEDTAVYYCNAGRYRAGGWGVGEGYWGQGTQVTVSS | high polyreactivity
QVQIVDSGGGLVQAGGSLRLSCDASGRLISRKAMGWYRQAPGKERELVAAITSGGSTYYADSVKGRFTISRDNAKNTVYLQMNSLKPEDTAVYYCAAVYRGVDSRWYCYDYWGQGTQVTVSS | low polyreactivity
QVQIVESGAGLVQAGGSLRISCAASGRIFRYYAMGWYRQAPGKERELVAAITVSGGSKYYADSVKGRFTISRDNAKNTVYLQMNSLKPEDTAVYYCAKALRSYLFIHFDYWVQGTQVTVSS | low polyreactivity
QVQIVESGGALYQAGGSLRLICAASGSTFSQYAMGWYRQEPGKERELLPTINSGGSTNYADSVKGRFTISRDNAMNTVYLQMNSLKPEETAVYYCAAREDLYLYYNGQRVQYDYWGQGTQVTVSS | low polyreactivity
QVQIVESGGCLVQAGGSLRLSCAASGRTFGRNAMGWYRQAPGKERELVAGISIGGGTTYYADSVKGRFTISRDNAKNTVYLQMNSLKPEDTAVYYCAARSWSYLHRYGYWGQGTQVTVSS | high polyreactivity
QVQIVESGGGLLQAGGSLPLTCAASGSTFDDNAQGWYRLAPGKERELVAAISYSGGSTYYADSVKGRFTISRDNAKNTVYLQMNSLKPEDPAVYYCAADDLYTDYETWWRRGDYWGQGTQVTVSS | low polyreactivity
QVQIVESGGGLVQAGASLSLSCAASGSIFGTNAMGWYRQAPGKERELVAAISSAGASTYYADSVKGRFTISRDNAKNTVYLQMNSLKPEDTAVYYCARGYTYQSSSFYYWGQGTQVTVSS | low polyreactivity
QVQIVESGGGLVQAGGNLRLSCAASGFIFTRYAMGWYRQAPGKERELVAAISTSVDRTYYADSVKGRFSISRDNAKNTVYLQMNSLKPEDTAVYYCAVVRPRSVGRYDYWGQGTQVTVSS | high polyreactivity
QVQIVESGGGLVQAGGSLPLSCDASGITFERYDMGWYRQAPGKERELGAAISTTGGRTYYADSVKGRFTISRDNAKNSVYLQMNSLKPEDTAVYYCAARYTTRRRYDYWGQGTQVTVSS | high polyreactivity
QVQIVESGGGLVQAGGSLRISCAASGFIFNRYAMGWYRQAPGTERELVADITGGSTYFADSVKGRFTISRDNAKNTVYLLMKSLKPEDTAVYYCAADVLRISTLLFRGPGFDYWGQGTQVTVSS | low polyreactivity
QVQIVESGGGLVQAGGSLRLSCAASGFIFDFYTMGWYRQAPGKERELVAAITWSGDSTYYADSVKGRFTISRDNAKNTVYLQMNSLKPEDTGVYYCAADWWGVWYFDYDYWGQGTQVTVSS | low polyreactivity
QVQIVESGGGLVQAGGSLRLSCAASGFIFDYNAMGWYRQAPGKERELVAAISYSGGRTSYADSVKGRFTISRDNAKNTVYLQMNSLKPEDTAVYYCAKDNYVDFGGYYYPRMYYWGQGTQVTVSS | high polyreactivity
QVQIVESGGGLVQAGGSLRLSCAASGFIFNIYAMGWYRQAPGKERELVAAITFSGGSTYYADSVKGRFTISRDNAKNTVYFQMNSLKPEDTAVYYCAADYLSEYTTYDYWGQGTQVTVSS | low polyreactivity
QVQIVESGGGLVQAGGSLRLSCAASGFTFGVYAMGWYRQAPGKERELVAAISVSGGRTYYADSVKGRFTISRDNAKNTVYLQMNSLKPEDTAVYYCAADLGLKTSSRRTSMYYWGQGTQVTVSS | high polyreactivity
QVQIVESGGGLVQAGGSLRLSCAASGFTLHRNAMGWYRQAPGKERELVANISWTGGSTYYADSVKGRFTISRDNAKNTVYLQMNSLKPEDTAVYYCAARGHWSIYGYYYLGATAFGYWGQGTQVTVSS | low polyreactivity
QVQIVESGGGLVQAGGSLRLSCAASGGTFLPYAMGSYRQAPGKERELVATITLIGDSTYYADSVKGRFTISRDNAKNTVYLQMNSLKPEDTAVYYCAARPVTSYAYGSWGQGSQVTVSS | low polyreactivity
QVQIVESGGGLVQAGGSLRLSCAASGIIFYYYAMGWYRPAPGKERELVAGISYSGGSTYADSVKGLFTISRDNAKNTVYLQMNSLKPEDTAVYDCAADYDYGGHWYDYWGQGTQVTVSS | low polyreactivity
QVQIVESGGGLVQAGGSLRLSCAASGITFVGNAMVWYRQAPGKERELVAVISRGDSTNYADSVKGLFTISRDNAKNTVYLQMNSLKPEDTAVYYCAADGSRAGQEGNDYWGQGTQVSVSS | low polyreactivity
